Measurements published in patent US20250346644A1 (LATTICON SUZHOU BIOPHARMACEUTICALS, published 2025).
Like-named read-outs stand apart in the source and are kept apart here.

T1: FcγRIIa (UniProt P12318 36-218, limits assumed)
T1 sequence (looked up): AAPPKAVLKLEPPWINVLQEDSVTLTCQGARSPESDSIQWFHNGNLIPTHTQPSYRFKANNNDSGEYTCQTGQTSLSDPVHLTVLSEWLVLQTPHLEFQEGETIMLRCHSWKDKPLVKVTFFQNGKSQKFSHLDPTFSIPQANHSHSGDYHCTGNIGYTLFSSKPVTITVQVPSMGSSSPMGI

T2: mIL2-his (mouse, UniProt P04351 21-169)
T2 construct: also called wild-type mouse IL-2 (with a his-tag); not shown: his-tag
T2 sequence (looked up): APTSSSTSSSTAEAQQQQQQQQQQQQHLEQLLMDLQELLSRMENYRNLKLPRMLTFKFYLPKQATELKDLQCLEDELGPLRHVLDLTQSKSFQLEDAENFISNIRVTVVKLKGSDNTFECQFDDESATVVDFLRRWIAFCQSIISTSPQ

T3: hIL2-TM-his (human, UniProt P60568 21-153)
T3 construct: also called hIL-2 mutein containing three point mutations K64G, N90R and M104E (with a his-tag); not shown: his-tag
T3 chain: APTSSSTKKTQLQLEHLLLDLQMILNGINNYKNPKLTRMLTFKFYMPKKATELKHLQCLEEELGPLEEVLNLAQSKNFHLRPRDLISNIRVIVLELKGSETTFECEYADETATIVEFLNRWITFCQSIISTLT


Experiments:
[1] = biological target: FcγRIIIa-158F (UniProt P08637 17-208, limits assumed); experiment: BLI (ForteBio), series of concentrations, not labelled on the sheet
[2] = biological target: FcγRI (UniProt P12314 16-288, limits assumed); experiment: as above
[3] = biological target: T1, FcγRIIa; experiment: as above
[4] = biological target: T4, hIL2-DM-his (human, UniProt P60568 21-153); experiment: BLI ForteBio, Ab on Protein A sensor
T4 construct: expressed in ExpiCHO-S cells, nickel-column purified; also called hIL-2 mutein containing two point mutations K64G and N90R (with a his-tag); not shown: his-tag
Target sequence in this assay (P60568 21-153 K84G/N110R): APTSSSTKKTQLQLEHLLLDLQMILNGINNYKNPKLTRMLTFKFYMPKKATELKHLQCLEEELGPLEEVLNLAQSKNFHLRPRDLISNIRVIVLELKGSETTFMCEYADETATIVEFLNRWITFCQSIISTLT

[5] = biological target: T2, mIL2-his; experiment: ELISA, antibody captured by anti-human IgG, mIL2-his titrated
[6] = biological target: T3, hIL2-TM-his; experiment: BLI ForteBio, Ab on Protein A sensor
[7] = biological target: T4, hIL2-DM-his; experiment: BLI ForteBio, Ab on Protein A sensor; remark: listed apart in the source
[8] = biological target: T5, hIL2-his (human, UniProt P60568 21-153); experiment: ELISA (section 2.1.1): antibody (13.3 nM) captured on coated goat anti-human IgG, hIL2-his titrated (the x axis is the antigen concentration), HRP anti-6xHis
T5 construct: the construct is not described further; not shown: his-tag

[9] = biological target: T2, mIL2-his; experiment: BLI ForteBio, Ab on Protein A sensor

Chain of FcγRIIIa-158F (P08637 17-208 limits assumed): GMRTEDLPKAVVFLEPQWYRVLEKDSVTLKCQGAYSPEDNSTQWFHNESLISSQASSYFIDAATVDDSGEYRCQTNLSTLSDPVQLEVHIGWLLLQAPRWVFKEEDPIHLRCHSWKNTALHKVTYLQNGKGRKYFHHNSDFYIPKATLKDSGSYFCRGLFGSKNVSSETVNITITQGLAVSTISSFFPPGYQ
Chain of FcγRI (P12314 16-288 limits assumed): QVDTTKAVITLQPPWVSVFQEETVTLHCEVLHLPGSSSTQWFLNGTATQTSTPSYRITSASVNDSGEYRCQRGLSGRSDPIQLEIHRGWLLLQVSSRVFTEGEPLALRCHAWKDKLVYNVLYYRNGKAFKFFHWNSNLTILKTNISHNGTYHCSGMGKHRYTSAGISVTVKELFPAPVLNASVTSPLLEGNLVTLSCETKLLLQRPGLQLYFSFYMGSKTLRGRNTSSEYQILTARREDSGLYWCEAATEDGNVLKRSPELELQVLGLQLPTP

Row | Binding Response (nm) [4] [nm] | Kd [4] [nM] | koff [4] [s⁻¹] | kon [4] [M⁻¹ s⁻¹] | EC50 [5] [µg/mL] | Kd [6] [nM] | koff [6] [s⁻¹] | kon [6] [M⁻¹ s⁻¹] | Kd [7] [nM] | koff [7] [s⁻¹] | kon [7] [M⁻¹ s⁻¹] | binding result [8] | Kd [9] [nM] | koff [9] [s⁻¹] | kon [9] [M⁻¹ s⁻¹] | Binder | binding result [1] | binding result [2] | binding result [3]
1 |  |  |  |  |  |  |  |  |  |  |  |  |  |  |  | K2G11-pITM (antibody, K2G11 with pI (N203D/K274Q/Q419E) and TM (L234F/L235E/P331S) mutations, EU numbering, in the hIgG1 heavy chain constant region; also called humanized anti-IL-2 antibody K2G11-pITM; copies: 2 + 2) VH: QVQLVQSGAEVKKPGATVKISCKVSGDTITAYYMHWVRQAPGQGLEWIGRIDPDDDSTKYAENFKGRVTITADTSTDTAYMELSSLRSEDTAVYYCTTITFLYSRELRWFAYWGQGTLVTVSSASTKGPSVFPLAPSSKSTSGGTAALGCLVKDYFPEPVTVSWNSGALTSGVHTFPAVLQSSGLYSLSSVVTVPSSSLGTQTYICNVDHKPSNTKVDKRVEPKSCDKTHTCPPCPAPEFEGGPSVFLFPPKPKDTLMISRTPEVTCVVVDVSHEDPEVQFNWYVDGVEVHNAKTKPREEQYNSTYRVVSVLTVLHQDWLNGKEYKCKVSNKALPASIEKTISKAKGQPREPQVYTLPPSRDELTKNQVSLTCLVKGFYPSDIAVEWESNGQPENNYKTTPPVLDSDGSFFLYSKLTVDKSRWQEGNVFSCSVMHEALHNHYTQKSLSLSPGK VL: DIVLTQSPATLSLSPGERATLSCQASQYISNYLSWYQQKPGQAPRLLIYSATSLASGIPARFSGSRSGTDFTLTISSLEPEDFAVYYCLQHYSTPYTFGQGTKLEIK | no binding (tested: not printed on the sheet) | no binding (tested: not printed on the sheet) | no binding (tested: not printed on the sheet)
2 | 0.133 | 46.9 | 0.0193 | 413000 | 0.0183 | 24 | 0.00569 | 237000 | 45.3 | 0.01 | 222000 | no binding (tested: 2 µg/mL) | 1 | 0.00018 | 179000 | hS4B6-H6K3 (antibody, V domains shown, full antibody) VH: QVQLVQSGAEVKKPGATVKISCKVSGDTITAYYLHWVRQAPGQGLEWIGRIDPEDDSTKYAENFKNRVTITADTSTNTAYMELSSLRSEDTAVYYCTTVTFYYSRELRWFAYWGQGTLVTVSS VL: DIVLTQSPATLSLSPGERATLSCQASQDIGNYLSWYQQKPGQAPRLLIYSATSLADGIPARFSGSRSGTDYTLTISSLEPEDFAVYYCLQHYSTPYTFGQGTKLEIK |  |  | 
